Results published in the Immune Epitope Database (IEDB).

Assays:
[1] = molecular target: HLA-C*06:02; experiment: IEDB peptide-MHC binding, purified MHC/direct/fluorescence; filed as Kd, often an IC50 or EC50 that approximates it; ≥ and ≤ were set here for values at or beyond the usual limits of such assays; details: source organism: Yersinia pseudotuberculosis IP 31758
[2] = molecular target: HLA-A*68:23; experiment: IEDB peptide-MHC binding, purified MHC/competitive/fluorescence; filed as Kd, often an IC50 or EC50 that approximates it; ≥ and ≤ were set here for values at or beyond the usual limits of such assays
[3] = molecular target: HLA-B*15:01; experiment: as above
[4] = molecular target: HLA-B*15:42; experiment: as above
[5] = molecular target: HLA-B*40:01; experiment: as above; details: source organism: Yersinia pseudotuberculosis IP 31758
[6] = molecular target: HLA-B*45:06; experiment: as above
[7] = molecular target: HLA-B*83:01; experiment: as above
[8] = molecular target: HLA-A*01:01; experiment: IEDB peptide-MHC binding, purified MHC/direct/fluorescence; filed as Kd, often an IC50 or EC50 that approximates it; ≥ and ≤ were set here for values at or beyond the usual limits of such assays
[9] = molecular target: HLA-A*02:01; experiment: as above
[10] = molecular target: HLA-A*03:01; experiment: as above
[11] = molecular target: HLA-A*26:01; experiment: as above
[12] = molecular target: HLA-A*30:01; experiment: as above; details: source organism: Rickettsia sibirica
[13] = molecular target: HLA-A*31:01; experiment: as above
[14] = molecular target: HLA-A*69:01; experiment: as above
[15] = molecular target: HLA-B*07:02; experiment: as above
[16] = molecular target: HLA-B*08:01; experiment: as above; details: source organism: Rickettsia sibirica
[17] = molecular target: HLA-B*15:01; experiment: as above
[18] = molecular target: HLA-B*27:05; experiment: as above
[19] = molecular target: HLA-B*40:01; experiment: as above
[20] = molecular target: HLA-B*44:02; experiment: as above; details: source organism: Rickettsia sibirica
[21] = molecular target: HLA-B*58:01; experiment: as above
[22] = molecular target: HLA-A*11:01; experiment: as above
[23] = molecular target: HLA-A*68:02; experiment: as above
[24] = molecular target: HLA-B*15:17; experiment: as above
[25] = molecular target: HLA-B*18:01; experiment: as above
[26] = molecular target: HLA-B*46:01; experiment: as above
[27] = molecular target: HLA-B*48:01; experiment: as above
[28] = molecular target: HLA-B*57:01; experiment: as above
[29] = molecular target: HLA-A*02:06; experiment: IEDB peptide-MHC binding, purified MHC/competitive/fluorescence; filed as Kd, often an IC50 or EC50 that approximates it; ≥ and ≤ were set here for values at or beyond the usual limits of such assays; details: source organism: Ehrlichia chaffeensis
[30] = molecular target: HLA-A*26:01; experiment: as above; details: source organism: Ehrlichia chaffeensis
[31] = molecular target: HLA-A*26:03; experiment: as above; details: source organism: Ehrlichia chaffeensis
[32] = molecular target: HLA-B*07:02; experiment: as above; details: source organism: Ehrlichia chaffeensis
[33] = molecular target: HLA-B*27:05; experiment: as above; details: source organism: Ehrlichia chaffeensis
[34] = molecular target: HLA-B*35:01; experiment: as above; details: source organism: Ehrlichia chaffeensis
[35] = molecular target: HLA-A*03:01; experiment: as above; details: source organism: Influenza A virus H3N2
[36] = molecular target: HLA-A*31:01; experiment: as above; details: source organism: Influenza A virus H3N2
[37] = molecular target: HLA-A*26:03; experiment: IEDB peptide-MHC binding, purified MHC/direct/fluorescence; filed as Kd, often an IC50 or EC50 that approximates it; ≥ and ≤ were set here for values at or beyond the usual limits of such assays; details: source organism: Burkholderia mallei ATCC 23344
[38] = source organism: Yersinia pseudotuberculosis IP 31758
[39] = source organism: Rickettsia sibirica
[40] = source organism: Brucella abortus 2308
[41] = source organism: Influenza A virus H3N2
[42] = source organism: Burkholderia mallei

Measured: Kd

RQMRASAPL
≥ 20 µM: [1]
0.145 µM: [3]; [38]
0.0181 µM: [5]
0.0024 µM: [2]; [38]
≥ 5 µM: [4]; [38] | [6]; [38] | [7]; [38]

AIKPITDQF
8.09 µM: [12]
≥ 10 µM: [21]; [39]
≥ 20 µM: [8]; [39] | [9]; [39] | [10]; [39] | [11]; [39] | [13]; [39] | [14]; [39] | [16] | [17]; [39] | [18]; [39] | [19]; [39] | [20]
5.83 µM: [15]; [39]

RVYKNYDPR
≥ 20 µM: [8]; [40] | [9]; [40] | [23]; [40] | [14]; [40] | [17]; [40] | [24]; [40] | [25]; [40] | [19]; [40] | [26]; [40] | [27]; [40] | [28]; [40] | [21]; [40] | [29] | [30] | [31] | [32]
0.101 µM: [22]; [40]
1.06 µM: [33]
1.67 µM: [34]
0.0513 µM: [13]; [40]

FSFGGFTFK
0.0219 µM: [2]; [41]
0.0037 µM: [35]
≤ 0.001 µM: [36]
≥ 5 µM: [4]; [41] | [6]; [41] | [7]; [41]

IQRRGAQFQ
3.18 µM: [3]; source organism: Burkholderia mallei SAVP1
≥ 20 µM: [8]; [42] | [9]; [42] | [10]; [42] | [22]; [42] | [11]; source organism: Burkholderia mallei ATCC 23344 | [37] | [13]; [42] | [23]; [42] | [15]; [42] | [24]; [42] | [25]; [42] | [18]; [42] | [19]; [42] | [26]; [42] | [27]; [42] | [28]; [42] | [21]; [42]
